For the assay, the target named is purified human BAG3 protein (human, UniProt O95817 1-575). Briefly: peptide or protein array.
Chain of purified human BAG3 protein (O95817 whole entry): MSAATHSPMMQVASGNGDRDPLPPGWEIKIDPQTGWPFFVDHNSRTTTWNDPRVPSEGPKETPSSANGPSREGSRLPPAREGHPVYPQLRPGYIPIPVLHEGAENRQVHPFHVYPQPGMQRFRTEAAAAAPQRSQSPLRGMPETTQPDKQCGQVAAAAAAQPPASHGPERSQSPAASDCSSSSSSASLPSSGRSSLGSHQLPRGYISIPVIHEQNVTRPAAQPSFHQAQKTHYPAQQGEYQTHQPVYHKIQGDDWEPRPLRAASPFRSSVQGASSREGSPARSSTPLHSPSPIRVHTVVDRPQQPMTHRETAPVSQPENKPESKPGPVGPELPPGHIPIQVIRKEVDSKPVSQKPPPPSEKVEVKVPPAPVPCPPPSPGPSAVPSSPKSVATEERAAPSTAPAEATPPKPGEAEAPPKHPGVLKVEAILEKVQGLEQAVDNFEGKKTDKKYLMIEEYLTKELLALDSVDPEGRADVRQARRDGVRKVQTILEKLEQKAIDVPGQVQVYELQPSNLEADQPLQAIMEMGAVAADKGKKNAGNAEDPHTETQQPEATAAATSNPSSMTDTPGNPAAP

Turning to ICALFMLPLCLMVCQWRCLRCLRQQHDDFA (peptide, UniProt P56817 465-494, looked up) [I465-A494 region of human BACE1 (peptide array spots)], the binding result is “binds”.

The values above are taken from publication PMC12101485 (Science Advances, 2025).
